Results on one molecule are retold here after paper PMC10715591, “EspB and HtpG interact with the type III-A CRISPR/Cas system of Mycobacterium tuberculosis” (Frontiers in Molecular Biosciences, 2023).

The Kd is a measure of binding affinity in units of concentration. Read a low Kd as a tighter complex. A word on the koff: it is a measure of how fast the partners let go of each other. Usually kon stands for the rate constant with which the complex forms.

In this experiment the target is T1, MtbHtpG (high-temperature protein G) (Mycobacterium tuberculosis H37Rv, UniProt P9WMJ7 1-647).
T1 construct: also called Chaperone htpG
T1 sequence: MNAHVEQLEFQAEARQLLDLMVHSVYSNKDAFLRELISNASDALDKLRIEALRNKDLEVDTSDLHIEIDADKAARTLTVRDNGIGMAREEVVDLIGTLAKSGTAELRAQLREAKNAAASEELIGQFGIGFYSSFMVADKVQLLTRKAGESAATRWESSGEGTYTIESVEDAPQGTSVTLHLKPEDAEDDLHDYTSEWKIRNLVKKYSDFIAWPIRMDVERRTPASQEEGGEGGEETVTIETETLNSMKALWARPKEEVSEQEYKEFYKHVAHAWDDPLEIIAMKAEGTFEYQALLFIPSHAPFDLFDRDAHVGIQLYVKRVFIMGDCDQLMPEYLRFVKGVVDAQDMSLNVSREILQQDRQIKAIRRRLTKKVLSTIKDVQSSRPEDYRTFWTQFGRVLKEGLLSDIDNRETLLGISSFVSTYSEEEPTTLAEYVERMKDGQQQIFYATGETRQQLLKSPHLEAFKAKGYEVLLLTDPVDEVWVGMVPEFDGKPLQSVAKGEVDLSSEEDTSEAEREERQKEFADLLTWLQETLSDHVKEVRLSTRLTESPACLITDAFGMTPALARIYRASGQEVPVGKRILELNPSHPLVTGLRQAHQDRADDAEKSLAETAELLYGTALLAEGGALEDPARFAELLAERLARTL
Put plainly: SPR. As to conditions: both partners purified.

B1: MtbCsm3 (natural protein)
chain: MTTSYAKIEITGTLTVLTGLQIGAGDGFSAIGAVDKPVVRDPLSRLPMIPGTSLKGKVRTLLSRQYGADTETFYRKPNEDHAHIRRLFGDTEEYMTGRLVFRDTKLTNKDDLEARGAKTLTEVKFENAINRVTAKANLRQMERVIPGSEFAFSLVYEVSFGTPGEEQKASLPSSDEIIEDFNAIARGLKLLELDYLGGSGTRGYGQVKFSNLKARAAVGALDGSLLEKLNHELAAV
B1 came in with a Kd of 59.4 nM, a koff of 0.000914 s⁻¹ and a kon of 15400 M⁻¹ s⁻¹.
